# Measurements published in the supplement of paper PMC9112550, “Optimization of the antimicrobial peptide Bac7 by deep mutational scanning” (BMC Biology, 2022).
# Test system: Escherichia coli TOP10
# Test: shrunken log2 fold change of peptide-encoding DNA abundance (4.5 h post-induction vs induction); higher = less antimicrobial activity (less host growth inhibition)
# Details: time post-induction: 4.5 h; library: site-saturation at positions 5, 18, 19, 20
# 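Note: peptides expressed intracellularly from a pBAD plasmid library in pooled LB shake-flask culture, induced with 0.3% L-arabinose, DNA abundance read by NGS, three biological replicates, DESeq2 with apeglm shrinkage.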
row,Sequence,shrunken log2 fold change
1,RRIRLRPPRLPRPRPRPMVIPRP,0.036
2,RRIRLRPPRLPRPRPRPVCVPRP,-0.115
3,RRIRFRPPRLPRPRPRPMICPRP,-0.303
4,RRIRQRPPRLPRPRPRPCHTPRP,-0.207
5,RRIRVRPPRLPRPRPRPMGDPRP,-0.104
6,RRIRCRPPRLPRPRPRPCHEPRP,-0.0566
7,RRIRKRPPRLPRPRPRPLNHPRP,-0.0528
8,RRIRCRPPRLPRPRPRPSYCPRP,-0.342
9,RRIRRRPPRLPRPRPRPIIAPRP,0.0198
10,RRIRIRPPRLPRPRPRPACYPRP,-0.472
11,RRIRHRPPRLPRPRPRPAPIPRP,0.31
12,RRIRMRPPRLPRPRPRPSEGPRP,-0.00192
13,RRIRIRPPRLPRPRPRPWCAPRP,-0.377
14,RRIRFRPPRLPRPRPRPIDYPRP,-0.155
15,RRIRLRPPRLPRPRPRPVHEPRP,0.0233
16,RRIRSRPPRLPRPRPRPQLYPRP,-0.071
17,RRIRRRPPRLPRPRPRPQWYPRP,-0.258
18,RRIRWRPPRLPRPRPRPEHGPRP,0.265
19,RRIRRRPPRLPRPRPRPHEMPRP,0.489
20,RRIRKRPPRLPRPRPRPFMDPRP,0.0834

row,Sequence,shrunken log2 fold change
1,RRIRPRPPRLPRPRPRPRWWPRP,0.0553
2,RRIRCRPPRLPRPRPRPEARPRP,0.193
3,RRIRPRPPRLPRPRPRPLFNPRP,-0.444
4,RRIRWRPPRLPRPRPRPGNVPRP,-0.127
5,RRIRMRPPRLPRPRPRPQCFPRP,0.275
6,RRIRDRPPRLPRPRPRPIWGPRP,-0.0681
7,RRIRDRPPRLPRPRPRPQQRPRP,0.147
8,RRIRKRPPRLPRPRPRPIQQPRP,0.25
9,RRIRFRPPRLPRPRPRPEYIPRP,-0.0963
10,RRIRKRPPRLPRPRPRPKEVPRP,0.0319
11,RRIRNRPPRLPRPRPRPAVRPRP,0.2
12,RRIRWRPPRLPRPRPRPGHWPRP,0.335
13,RRIRIRPPRLPRPRPRPANQPRP,-0.693
14,RRIRQRPPRLPRPRPRPCFSPRP,-0.0347
15,RRIRERPPRLPRPRPRPRYKPRP,-0.0357
16,RRIRWRPPRLPRPRPRPESKPRP,0.268
17,RRIRLRPPRLPRPRPRPPAGPRP,0.607
18,RRIRWRPPRLPRPRPRPIRCPRP,0.0257
19,RRIRKRPPRLPRPRPRPEQIPRP,0.0375
20,RRIRARPPRLPRPRPRPRHGPRP,0.343

row,Sequence,shrunken log2 fold change
1,RRIRLRPPRLPRPRPRPLFKPRP,-0.188
2,RRIRLRPPRLPRPRPRPDKFPRP,-0.26
3,RRIRQRPPRLPRPRPRPNKVPRP,-0.468
4,RRIRHRPPRLPRPRPRPFIKPRP,-0.138
5,RRIRCRPPRLPRPRPRPRYYPRP,-0.612
6,RRIRNRPPRLPRPRPRPVNLPRP,-0.0237
7,RRIRYRPPRLPRPRPRPCGYPRP,-0.467
8,RRIRLRPPRLPRPRPRPDTAPRP,0.0121
9,RRIRIRPPRLPRPRPRPVQWPRP,0.0754
10,RRIRSRPPRLPRPRPRPNLEPRP,-0.144
11,RRIRDRPPRLPRPRPRPDDNPRP,0.153
12,RRIRLRPPRLPRPRPRPFFLPRP,-0.282
13,RRIRKRPPRLPRPRPRPITYPRP,-0.193
14,RRIRWRPPRLPRPRPRPVKRPRP,0.015
15,RRIRCRPPRLPRPRPRPMWVPRP,0.121
16,RRIRTRPPRLPRPRPRPMMMPRP,2.94
17,RRIRSRPPRLPRPRPRPNYQPRP,-0.199
18,RRIRSRPPRLPRPRPRPYGIPRP,0.104
19,RRIRVRPPRLPRPRPRPLMRPRP,0.515
20,RRIRWRPPRLPRPRPRPQVSPRP,-0.0705
